Biological target: Recombinant histidine-tagged human WRN (human) (UniProt Q14191)
Sequence (Q14191 whole entry): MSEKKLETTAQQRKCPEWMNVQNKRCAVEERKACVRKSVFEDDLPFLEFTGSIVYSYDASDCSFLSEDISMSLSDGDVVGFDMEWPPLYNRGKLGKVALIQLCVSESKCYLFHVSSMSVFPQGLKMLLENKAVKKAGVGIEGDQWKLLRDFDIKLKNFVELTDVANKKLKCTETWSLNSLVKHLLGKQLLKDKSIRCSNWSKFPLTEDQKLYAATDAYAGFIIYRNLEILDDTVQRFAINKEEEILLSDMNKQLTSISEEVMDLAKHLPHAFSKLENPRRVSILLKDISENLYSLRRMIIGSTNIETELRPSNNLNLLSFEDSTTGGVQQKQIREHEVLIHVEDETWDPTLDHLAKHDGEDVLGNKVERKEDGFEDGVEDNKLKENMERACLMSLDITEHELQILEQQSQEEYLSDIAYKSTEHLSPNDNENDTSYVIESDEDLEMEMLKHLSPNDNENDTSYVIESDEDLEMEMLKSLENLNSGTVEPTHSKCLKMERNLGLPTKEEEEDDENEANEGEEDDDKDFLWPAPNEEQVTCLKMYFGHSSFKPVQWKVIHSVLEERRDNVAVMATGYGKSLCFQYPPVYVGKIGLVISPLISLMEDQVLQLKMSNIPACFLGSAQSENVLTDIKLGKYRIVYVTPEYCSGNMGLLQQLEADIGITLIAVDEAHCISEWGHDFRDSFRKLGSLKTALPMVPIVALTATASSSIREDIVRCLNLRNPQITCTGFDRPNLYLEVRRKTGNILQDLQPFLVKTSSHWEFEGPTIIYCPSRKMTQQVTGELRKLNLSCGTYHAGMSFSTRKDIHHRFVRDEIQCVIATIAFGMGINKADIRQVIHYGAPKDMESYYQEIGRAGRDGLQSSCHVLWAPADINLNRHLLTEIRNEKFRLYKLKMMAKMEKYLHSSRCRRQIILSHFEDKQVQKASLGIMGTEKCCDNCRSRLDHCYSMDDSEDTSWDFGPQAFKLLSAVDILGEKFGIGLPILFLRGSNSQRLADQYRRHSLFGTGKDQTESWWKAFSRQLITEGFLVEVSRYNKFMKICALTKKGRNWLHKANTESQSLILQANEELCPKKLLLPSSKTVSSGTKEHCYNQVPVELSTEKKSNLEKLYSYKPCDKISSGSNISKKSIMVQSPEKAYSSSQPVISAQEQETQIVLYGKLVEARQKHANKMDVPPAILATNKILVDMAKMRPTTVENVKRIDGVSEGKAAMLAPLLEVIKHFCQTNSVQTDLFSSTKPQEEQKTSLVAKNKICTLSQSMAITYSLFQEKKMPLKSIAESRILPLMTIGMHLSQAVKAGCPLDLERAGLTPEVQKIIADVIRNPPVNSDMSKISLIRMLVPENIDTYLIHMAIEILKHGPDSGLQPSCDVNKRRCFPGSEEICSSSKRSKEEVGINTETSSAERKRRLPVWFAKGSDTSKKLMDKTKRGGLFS

WRN helicase activity on a 22 bp forked duplex with p300 in the absence of acetyl CoA, at the highest WRN concentration: 2 fold
Substance: recombinant human p300 (histone acetyltransferase enzyme p300), Q09472 1-2414
